In IntAct's records for PubMed 12172031:

B1: Coronatine-insensitive protein 1 (Arabidopsis thaliana (Mouse-ear cress)), O04197 (parent)
chain: MEDPDIKRCKLSCVATVDDVIEQVMTYITDPKDRDSASLVCRRWFKIDSETREHVTMALCYTATPDRLSRRFPNLRSLKLKGKPRAAMFNLIPENWGGYVTPWVTEISNNLRQLKSVHFRRMIVSDLDLDRLAKARADDLETLKLDKCSGFTTDGLLSIVTHCRKIKTLLMEESSFSEKDGKWLHELAQHNTSLEVLNFYMTEFAKISPKDLETIARNCRSLVSVKVGDFEILELVGFFKAAANLEEFCGGSLNEDIGMPEKYMNLVFPRKLCRLGLSYMGPNEMPILFPFAAQIRKLDLLYALLETEDHCTLIQKCPNLEVLETRNVIGDRGLEVLAQYCKQLKRLRIERGADEQGMEDEEGLVSQRGLIALAQGCQELEYMAVYVSDITNESLESIGTYLKNLCDFRLVLLDREERITDLPLDNGVRSLLIGCKKLRRFAFYLRQGGLTDLGLSYIGQYSPNVRWMLLGYVGESDEGLMEFSRGCPNLQKLEMRGCCFSERAIAAAVTKLPSLRYLWVQGYRASMTGQDLMQMARPYWNIELIPSRRVPEVNQQGEIREMEHPAHILAYYSLAGQRTDCPTTVRVLKEPI

Variants of: B1
Settings: with skp1a_arath SKP1A

| effect of a mutation on the interaction | Variant |
| --- | --- |
| decreasing interaction | MEDPDIKRCKLSCVATVDDVIAQVMTYITDPKDRDSASLVCRRWFKIDSETREHVTMALCYTATPDRLSRRFPNLRSLKLKGKPRAAMFNLIPENWGGYVTPWVTEISNNLRQLKSVHFRRMIVSDLDLDRLAKARADDLETLKLDKCSGFTTDGLLSIVTHCRKIKTLLMEESSFSEKDGKWLHELAQHNTSLEVLNFYMTEFAKISPKDLETIARNCRSLVSVKVGDFEILELVGFFKAAANLEEFCGGSLNEDIGMPEKYMNLVFPRKLCRLGLSYMGPNEMPILFPFAAQIRKLDLLYALLETEDHCTLIQKCPNLEVLETRNVIGDRGLEVLAQYCKQLKRLRIERGADEQGMEDEEGLVSQRGLIALAQGCQELEYMAVYVSDITNESLESIGTYLKNLCDFRLVLLDREERITDLPLDNGVRSLLIGCKKLRRFAFYLRQGGLTDLGLSYIGQYSPNVRWMLLGYVGESDEGLMEFSRGCPNLQKLEMRGCCFSERAIAAAVTKLPSLRYLWVQGYRASMTGQDLMQMARPYWNIELIPSRRVPEVNQQGEIREMEHPAHILAYYSLAGQRTDCPTTVRVLKEPI [E22A] |

Variants of: B1
Settings: with skp1b_arath SKP1B

| effect of a mutation on the interaction | Variant |
| --- | --- |
| decreasing interaction | MEDPDIKRCKLSCVATVDDVIAQVMTYITDPKDRDSASLVCRRWFKIDSETREHVTMALCYTATPDRLSRRFPNLRSLKLKGKPRAAMFNLIPENWGGYVTPWVTEISNNLRQLKSVHFRRMIVSDLDLDRLAKARADDLETLKLDKCSGFTTDGLLSIVTHCRKIKTLLMEESSFSEKDGKWLHELAQHNTSLEVLNFYMTEFAKISPKDLETIARNCRSLVSVKVGDFEILELVGFFKAAANLEEFCGGSLNEDIGMPEKYMNLVFPRKLCRLGLSYMGPNEMPILFPFAAQIRKLDLLYALLETEDHCTLIQKCPNLEVLETRNVIGDRGLEVLAQYCKQLKRLRIERGADEQGMEDEEGLVSQRGLIALAQGCQELEYMAVYVSDITNESLESIGTYLKNLCDFRLVLLDREERITDLPLDNGVRSLLIGCKKLRRFAFYLRQGGLTDLGLSYIGQYSPNVRWMLLGYVGESDEGLMEFSRGCPNLQKLEMRGCCFSERAIAAAVTKLPSLRYLWVQGYRASMTGQDLMQMARPYWNIELIPSRRVPEVNQQGEIREMEHPAHILAYYSLAGQRTDCPTTVRVLKEPI [E22A] |

Variants of: B1
Settings: with cul1_arath CUL1, Q94AH6
cul1_arath CUL1, Q94AH6, sequence (Q94AH6 whole entry): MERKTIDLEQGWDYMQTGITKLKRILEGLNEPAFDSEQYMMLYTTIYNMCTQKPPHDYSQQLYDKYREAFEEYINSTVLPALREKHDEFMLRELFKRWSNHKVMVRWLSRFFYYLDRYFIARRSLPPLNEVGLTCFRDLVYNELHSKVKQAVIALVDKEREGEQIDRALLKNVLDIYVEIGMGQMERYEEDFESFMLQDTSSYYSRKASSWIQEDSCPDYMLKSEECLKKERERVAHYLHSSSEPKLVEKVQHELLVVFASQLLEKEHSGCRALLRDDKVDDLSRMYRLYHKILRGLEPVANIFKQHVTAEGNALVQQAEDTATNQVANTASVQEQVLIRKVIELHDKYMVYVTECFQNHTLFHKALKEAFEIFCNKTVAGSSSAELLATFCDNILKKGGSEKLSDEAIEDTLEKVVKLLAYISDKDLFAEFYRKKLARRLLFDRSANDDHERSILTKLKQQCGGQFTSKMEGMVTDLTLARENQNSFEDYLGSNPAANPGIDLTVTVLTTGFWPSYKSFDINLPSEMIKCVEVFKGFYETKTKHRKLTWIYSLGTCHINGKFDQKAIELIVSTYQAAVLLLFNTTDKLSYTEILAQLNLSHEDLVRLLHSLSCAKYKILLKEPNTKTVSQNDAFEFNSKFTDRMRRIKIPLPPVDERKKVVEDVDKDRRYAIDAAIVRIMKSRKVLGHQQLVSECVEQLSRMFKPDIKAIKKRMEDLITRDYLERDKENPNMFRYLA

| effect of a mutation on the interaction | Variant |
| --- | --- |
| decreasing interaction | MEDPDIKRCKLSCVATVDDVIAQVMTYITDPKDRDSASLVCRRWFKIDSETREHVTMALCYTATPDRLSRRFPNLRSLKLKGKPRAAMFNLIPENWGGYVTPWVTEISNNLRQLKSVHFRRMIVSDLDLDRLAKARADDLETLKLDKCSGFTTDGLLSIVTHCRKIKTLLMEESSFSEKDGKWLHELAQHNTSLEVLNFYMTEFAKISPKDLETIARNCRSLVSVKVGDFEILELVGFFKAAANLEEFCGGSLNEDIGMPEKYMNLVFPRKLCRLGLSYMGPNEMPILFPFAAQIRKLDLLYALLETEDHCTLIQKCPNLEVLETRNVIGDRGLEVLAQYCKQLKRLRIERGADEQGMEDEEGLVSQRGLIALAQGCQELEYMAVYVSDITNESLESIGTYLKNLCDFRLVLLDREERITDLPLDNGVRSLLIGCKKLRRFAFYLRQGGLTDLGLSYIGQYSPNVRWMLLGYVGESDEGLMEFSRGCPNLQKLEMRGCCFSERAIAAAVTKLPSLRYLWVQGYRASMTGQDLMQMARPYWNIELIPSRRVPEVNQQGEIREMEHPAHILAYYSLAGQRTDCPTTVRVLKEPI [E22A] |
